Columns and labels:
Assay in all cases: cell-based or functional assay
[1] = molecular target: HSA-20K hGH (human)
[2] = molecular target: HSA-[linker]-20K hGH (human)
[3] = molecular target: T1, human GH receptor (hGHR) expressed on mouse BaF3 cells (BaF3/hGHR cells) (human, UniProt P10912 19-638)
T1 sequence (looked up): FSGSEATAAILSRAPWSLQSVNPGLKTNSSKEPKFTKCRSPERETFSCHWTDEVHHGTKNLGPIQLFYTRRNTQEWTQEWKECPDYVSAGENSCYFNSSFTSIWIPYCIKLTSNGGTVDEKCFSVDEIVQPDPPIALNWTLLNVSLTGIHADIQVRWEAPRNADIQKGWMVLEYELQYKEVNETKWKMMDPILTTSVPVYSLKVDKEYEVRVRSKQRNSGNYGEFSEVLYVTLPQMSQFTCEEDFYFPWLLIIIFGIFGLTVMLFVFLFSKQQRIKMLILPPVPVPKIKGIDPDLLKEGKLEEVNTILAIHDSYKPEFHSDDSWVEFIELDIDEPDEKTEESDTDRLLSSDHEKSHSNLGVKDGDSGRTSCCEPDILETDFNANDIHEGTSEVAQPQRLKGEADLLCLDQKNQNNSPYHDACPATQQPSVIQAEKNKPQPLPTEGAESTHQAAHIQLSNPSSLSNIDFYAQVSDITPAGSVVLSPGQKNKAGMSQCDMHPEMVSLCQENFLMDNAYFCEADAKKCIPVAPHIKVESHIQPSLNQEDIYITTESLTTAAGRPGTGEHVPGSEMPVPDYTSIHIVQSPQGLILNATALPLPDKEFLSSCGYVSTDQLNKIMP

[4] = molecular target: T2, human prolactin receptor (hPRLR) expressed on mouse BaF3 cells (BaF3/hPRLR cells) (human, UniProt P16471 25-622)
T2 sequence (looked up): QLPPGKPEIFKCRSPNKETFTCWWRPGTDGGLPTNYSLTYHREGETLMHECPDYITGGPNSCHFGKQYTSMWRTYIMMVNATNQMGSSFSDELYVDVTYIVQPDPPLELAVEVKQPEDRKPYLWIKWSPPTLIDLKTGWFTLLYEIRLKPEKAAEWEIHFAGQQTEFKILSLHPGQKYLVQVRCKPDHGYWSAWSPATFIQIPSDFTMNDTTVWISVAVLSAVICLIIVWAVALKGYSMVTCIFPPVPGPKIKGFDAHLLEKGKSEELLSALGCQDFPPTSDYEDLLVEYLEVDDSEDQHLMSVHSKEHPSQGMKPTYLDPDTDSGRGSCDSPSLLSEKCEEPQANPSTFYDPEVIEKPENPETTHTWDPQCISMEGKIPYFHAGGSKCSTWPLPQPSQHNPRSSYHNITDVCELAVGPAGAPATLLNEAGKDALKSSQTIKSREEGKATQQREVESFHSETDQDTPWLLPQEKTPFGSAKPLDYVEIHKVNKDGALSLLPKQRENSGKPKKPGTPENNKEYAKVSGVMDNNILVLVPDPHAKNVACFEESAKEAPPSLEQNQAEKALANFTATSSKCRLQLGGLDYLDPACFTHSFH

B1: recombinant human growth hormone binding protein (rhGHBP, BioVision Inc.) (receptor, UniProt P10912 19-264, looked up)
chain: FSGSEATAAILSRAPWSLQSVNPGLKTNSSKEPKFTKCRSPERETFSCHWTDEVHHGTKNLGPIQLFYTRRNTQEWTQEWKECPDYVSAGENSCYFNSSFTSIWIPYCIKLTSNGGTVDEKCFSVDEIVQPDPPIALNWTLLNVSLTGIHADIQVRWEAPRNADIQKGWMVLEYELQYKEVNETKWKMMDPILTTSVPVYSLKVDKEYEVRVRSKQRNSGNYGEFSEVLYVTLPQMSQFTCEEDFY
IC50 of hGHBP against cell growth activity on BaF3/hGHR cells (by extrapolation) [1]: 250 to 350 nM | IC50 of hGHBP against cell growth activity on BaF3/hGHR cells (by extrapolation) [2]: 250 to 350 nM

B2: 20K human growth hormone (ATGen Inc.) (ligand)
chain: FPTIPLSRLFDNAMLRAHRLHQLAFDTYQEFNPQTSLCFSESIPTPSNREETQQKSNLELLRISLLLIQSWLEPVQFLRSVFANSLVYGASDSNVYDLLKDLEEGIQTLMGRLEDGSPRTGQIFKQTYSKFDTNSHNDDALLKNYGLLYCFRKDMDKVETFLRIVQCRSVEGSCGF
EC50 (row printed as ED50), cell growth activity using BaF3/hGHR cells [3]: 0.00084 nM | EC50 (row printed as ED50), prolactin-like activity using BaF3/hPRLR cells [4]: 0.27 nM

From patent US20190010205A1 (JCR PHARMACEUTICALS, published 2019)
